Data reported in patent EP2270053A1 (U3 Pharma GmbH, dated 2011).

T1: human receptor tyrosine kinase AXL (human, UniProt P30530 26-894)
T1 construct: also called hAXL; human AXL on NIH3T3-AXL cl.7, Ratl-AXL cl.2, Hs578T, NCI-H292 and CaSki cells
T1 sequence: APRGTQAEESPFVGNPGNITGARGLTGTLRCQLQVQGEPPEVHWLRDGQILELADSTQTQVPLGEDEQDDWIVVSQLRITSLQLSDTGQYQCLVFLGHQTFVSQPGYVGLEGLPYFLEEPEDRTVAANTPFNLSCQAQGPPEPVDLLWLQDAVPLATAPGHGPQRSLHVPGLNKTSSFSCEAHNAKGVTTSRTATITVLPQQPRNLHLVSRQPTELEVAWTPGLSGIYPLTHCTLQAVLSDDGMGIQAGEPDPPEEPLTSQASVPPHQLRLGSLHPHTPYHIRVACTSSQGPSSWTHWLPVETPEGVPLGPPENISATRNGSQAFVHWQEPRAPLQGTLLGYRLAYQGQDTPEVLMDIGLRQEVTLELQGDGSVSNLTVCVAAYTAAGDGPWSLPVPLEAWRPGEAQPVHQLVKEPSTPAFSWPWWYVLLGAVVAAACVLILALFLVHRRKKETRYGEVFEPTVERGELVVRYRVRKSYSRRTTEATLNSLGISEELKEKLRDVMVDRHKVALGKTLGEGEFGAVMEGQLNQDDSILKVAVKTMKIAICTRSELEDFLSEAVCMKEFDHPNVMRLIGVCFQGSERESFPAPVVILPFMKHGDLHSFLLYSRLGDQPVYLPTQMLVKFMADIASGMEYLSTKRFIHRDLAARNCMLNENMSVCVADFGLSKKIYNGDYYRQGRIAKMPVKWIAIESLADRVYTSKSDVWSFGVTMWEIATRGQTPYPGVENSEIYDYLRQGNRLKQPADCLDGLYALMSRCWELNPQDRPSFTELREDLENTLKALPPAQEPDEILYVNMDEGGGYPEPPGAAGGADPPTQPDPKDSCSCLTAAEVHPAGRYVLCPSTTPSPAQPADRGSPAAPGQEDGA


target: T1, human receptor tyrosine kinase AXL; test: FACS Scatchard, apparent KD (KDapp) on NIH3T3 cells overexpressing human AXL

Kd | Binder
810 pM | rat anti-human AXL monoclonal antibody #11D5 (antibody, rat IgG2a, V domains shown, also called III11D5) VH: EVQLQESGPGLVKPSQSLSLTCSVTGYSITSNYWGWIRKFPGNKMEWIGHITNSGNTTYNPSLKSRISISRDTSRNQFFLQLNSVTTEDTATYYCAKGAFDYWGQGVMVTVSS VL: DIQMTQSPSSMSTSLGDRVTITCRASQDIGNYLSWFQQKVGKSPRRMIYGAIKLAVGVPSRFSGSRSGSDYSLTISSLESEDMAIYYCLQYIQFPLTFGSGTKLELKR
400 pM | chimeric anti-AXL antibody ch11D5-IgG1 (antibody, V domains shown, also called chm11D5; human chimeric antibody (of #11D5)) VH: EVQLQESGPGLVKPSQSLSLTCSVTGYSITSNYWGWIRKFPGNKMEWIGHITNSGNTTYNPSLKSRISISRDTSRNQFFLQLNSVTTEDTATYYCAKGAFDYWGQGVMVTVSS VL: DIQMTQSPSSMSTSLGDRVTITCRASQDIGNYLSWFQQKVGKSPRRMIYGAIKLAVGVPSRFSGSRSGSDYSLTISSLESEDMAIYYCLQYIQFPLTFGSGTKLELKR
380 pM | rat anti-human AXL monoclonal antibody #11B7 (antibody, rat IgG1, V domains shown, also called I11B7; rat anti-Axl antibody 11B7) VH: EVQLQESGPGLVKPSQSLSLTCSVTGYSITSNYWGWIRKFPGDKMEWMGYITYSGSTSYNPSLKSRISITRDTSKNQFFLQLNSVTSEDTATYYCAITTFYYWGQGVMVTVSS VL: DIQMTQAPSSLPASLGDRVTITCRASQDIGNYLRWFQQKPGKSPRLMISGATNLAAGVPSRFSGSRSGSDYSLTISSLESEDMADYYCLQSKESPWTFGGGTKLELKR
600 pM | chimeric anti-AXL antibody ch11B7-IgG1 (antibody, V domains shown, Rat 11B7 variable domains on human IgG1 / human kappa; also called chm11B7; chimeric anti-AXL mAb #11B7) VH: EVQLQESGPGLVKPSQSLSLTCSVTGYSITSNYWGWIRKFPGDKMEWMGYITYSGSTSYNPSLKSRISITRDTSKNQFFLQLNSVTSEDTATYYCAITTFYYWGQGVMVTVSS VL: DIQMTQAPSSLPASLGDRVTITCRASQDIGNYLRWFQQKPGKSPRLMISGATNLAAGVPSRFSGSRSGSDYSLTISSLESEDMADYYCLQSKESPWTFGGGTKLELKR
